B1: 105-08-1C6 ATRIMER complex (designed binder)
chain: EPPTQKPKKIVNAKKDVVNTKMFEELKSRLDTLAQEVALLKEQQALQTVCLKGTKVHMKCFLAFTQTKTFHEASEDCISRGGTLSTPQTGSENDALYEYLRQSVGNEAEIWLGLNGSALTDTWVDMTGARIAYKNWETEITAQPDGGFGYFGENCAVLSGAANGKWFDKRCRDQLPYICQFGIV
B2: 105-08-1G2 ATRIMER complex (designed binder)
chain: B1 chain with A118S, L119K, D121N, F148W
B3: 105-08-2G1 ATRIMER complex (designed binder)
chain: B1 chain with A118P, L119K, D121H
B4: 105-08-1D12 ATRIMER complex (designed binder)
chain: B1 chain with A118V
notes: not shown: C-terminal tag: His/Myc (pANA4) or HA-StrepII (pANA10)
B5: 105-08-2G2 ATRIMER complex (designed binder)
chain: B1 chain with L119I, F148W
B6: 105-08-2H2 ATRIMER complex (designed binder)
chain: B1 chain with A118P, L119T, F148W
B7: 105-08-1D10 ATRIMER complex (designed binder)
chain: B1 chain with L119R, D121G, F148W
B8: 105-08-2H11 ATRIMER complex (designed binder)
chain: B1 chain with A118P, L119R, F148W
notes: as for B4
B9: 105-08-1C10 ATRIMER complex (designed binder)
chain: B1 chain with A118S, L119V, D121N, F148W
B10: 105-08-2B3 ATRIMER complex (designed binder, not shown: small tags and cut ends)
chain: B1 chain with L119I, D121N, F148W
B11: 105-20-1B4 ATRIMER complex (designed binder)
chain: B1 chain with A118S, L119R, D121N, F148W
modifications: ATRIMER complex: homotrimer of three copies of this chain, joined by the tetranectin coiled coil
notes: not shown: C-terminal tag: Myc/His (pANA4) or HA-StrepII (pANA10)
B12: 105-08-2H3 ATRIMER complex (designed binder)
chain: B1 chain with A118S, D121N, F148W
modifications: ATRIMER complex: homotrimer of three copies of this chain, joined by the tetranectin coiled coil
notes: as for B11
B13: 105-08-1C9 ATRIMER complex (designed binder)
chain: B1 chain with A118T
B14: 105-08-2H4 ATRIMER complex (designed binder)
chain: B1 chain with A118V, L119R
B15: 105-20-2C4a ATRIMER complex (designed binder)
chain: B1 chain with L119K, F148W
modifications: ATRIMER complex: homotrimer of three copies of this chain, joined by the tetranectin coiled coil
notes: as for B11
B16: 105-08-1C11 ATRIMER complex (designed binder)
chain: B1 chain with A118S, L119R
modifications: ATRIMER complex: homotrimer of three copies of this chain, joined by the tetranectin coiled coil
notes: as for B11
B17: 105-08-2C11 ATRIMER complex (designed binder)
chain: B1 chain with A118L, L119K, D121Q, F148W
B18: 105-08-2E12 ATRIMER complex (designed binder)
chain: B1 chain with A118G, F148W
B19: 105-08-2A1 ATRIMER complex (designed binder)
chain: B1 chain with A118M, L119R, F148W
B20: 105-08-2C6 ATRIMER complex (designed binder)
chain: B1 chain with A118Q, L119R, F148W
B21: 105-08-2C12 ATRIMER complex (designed binder, not shown: small tags and cut ends)
chain: B1 chain with A118Q, L119R
B22: 105-20-2C4b ATRIMER complex (designed binder)
chain: B1 chain with A118V, L119K, F148W
B23: 105-08-2C8 ATRIMER complex (designed binder)
chain: B1 chain with A118W, F148W
B24: 105-08-2G4 ATRIMER complex (designed binder)
chain: B1 chain with A118P, L119R, D121G
B25: 105-08-2C9 ATRIMER complex (designed binder)
chain: B1 chain with A118T, D121N, F148W
B26: 105-08-1G12 ATRIMER complex (designed binder)
chain: B1 chain with A118L, L119R, D121G, F148W
modifications: Homotrimer (ATRIMER complex) of the one chain given.
B27: 105-08-2G6 ATRIMER complex (designed binder)
chain: B1 chain with A118L, F148W
B28: 105-20-1A6 ATRIMER complex (designed binder)
chain: B1 chain with L119K, D121G, F148W
B29: 105-08-2C4 ATRIMER complex (designed binder)
chain: B1 chain with A118L, D121N
modifications: ATRIMER complex: homotrimer of three copies of this chain, joined by the tetranectin coiled coil
notes: as for B11
B30: 105-08-1G9 ATRIMER complex (designed binder)
chain: B1 chain with A118P, L119K
B31: 105-08-2H6 ATRIMER complex (designed binder)
chain: B1 chain with A118P, L119V, D121G
B32: 105-08-2D2 ATRIMER complex (designed binder)
chain: B1 chain with L119R, D121G
B33: 105-08-2H12 ATRIMER complex (designed binder, not shown: small tags and cut ends)
chain: B1 chain with A118P, L119R, D121E
B34: 105-08-2H10 ATRIMER complex (designed binder)
chain: B1 chain with A118N, L119H
B35: 105-08-2C1 ATRIMER complex (designed binder, not shown: small tags and cut ends)
chain: B1 chain with A118S, F148W
B36: 105-20-2C11 ATRIMER complex (designed binder)
chain: B1 chain with A118V, L119R, F148W
notes: as for B4
B37: 105-20-2C7 ATRIMER complex (designed binder, not shown: small tags and cut ends)
chain: B1 chain with A118V, L119T
B38: 105-08-1D2 ATRIMER complex (designed binder)
chain: B1 chain with A118P, L119V
notes: as for B4
B39: 105-08-1D1 ATRIMER complex (designed binder, not shown: small tags and cut ends)
chain: B1 chain with F148W

Positions count from the first letter of the chain named.

The assay concerns the target T1, recombinant human IL-23R/Fc chimera (R&D Systems) (human, UniProt Q5VWK5 24-355).
T1 construct: Bought; also called rhIL23RFc
T1 sequence (looked up): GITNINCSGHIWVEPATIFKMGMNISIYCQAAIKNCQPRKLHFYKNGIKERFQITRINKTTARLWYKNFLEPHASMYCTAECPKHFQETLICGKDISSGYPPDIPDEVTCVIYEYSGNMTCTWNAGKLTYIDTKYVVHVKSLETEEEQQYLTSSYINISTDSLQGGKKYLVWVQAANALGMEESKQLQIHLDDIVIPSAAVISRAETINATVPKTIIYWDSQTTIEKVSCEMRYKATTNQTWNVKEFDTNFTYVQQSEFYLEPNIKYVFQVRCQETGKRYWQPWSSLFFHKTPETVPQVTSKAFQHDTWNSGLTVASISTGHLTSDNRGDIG
Briefly: competition ELISA vs IL-23. The protocol:
Assays were performed generally as follows. Individual wells in Immulon HB2 plates were incubated overnight at 4° C. with 100 μL PBS containing 100 ng of an anti-human IgG Fc (R&D MAB 110 clone 97924). Plates were washed five times with PBS/0.05% Tween 20, and wells were incubated for 1.5 h at RT with 100 μL each of PBS containing 50 ng of recombinant human IL-23R/Fc. […] Competitor was included at a final concentration of 1 μg/mL. After incubation, plates were washed as described and wells were incubated for 40 min at RT with 100 μL each of PBS containing a 1:5000 dilution of streptavidin-HRP conjugate (Pierce catalog no. 21130). After washing, wells were incubated with 100 μL each of TMB (BioFX Lab catalog no. TMBH-1000-0) for up to 30 min at RT. Reactions were stopped with an equal volume of 0.2 M sulfuric acid.
On the technique in general: An ELISA detects its analyte on a solid surface through an enzyme-linked reagent.
Take B1: the “Ratio IC50 to 056-53.H4E IC50” value turned out to be 2.

For B2, the “Ratio IC50 to 056-53.H4E IC50” value came out at 5.5. Next, B3: 2.2; B4: 4.6; B5: 3.8. Take B6: the “Ratio IC50 to 056-53.H4E IC50” value came to 4. Next, B7: 5.5; B8: 4.3; B9: 5.

B10: the “Ratio IC50 to 056-53.H4E IC50” value was 3.4. The value for B11 was 3; that for B12 was 2.9; that for B13 was 7.4. Take B14: the “Ratio IC50 to 056-53.H4E IC50” value was 5. Consider B15, for which the “Ratio IC50 to 056-53.H4E IC50” value is 2.9. As for B16, the “Ratio IC50 to 056-53.H4E IC50” value turned out to be 2.8. The value for B17 was 9.1; that for B18 was 9.1; that for B19 was 5. For the molecule B20, the “Ratio IC50 to 056-53.H4E IC50” value is 3.6. For B21, the “Ratio IC50 to 056-53.H4E IC50” value came out at 3.3. On to B22, for which the “Ratio IC50 to 056-53.H4E IC50” value was 4.2. The value for B23 was 8.4; that for B24 was 2.5; that for B25 was 5.3.

For B26, the “Ratio IC50 to 056-53.H4E IC50” value is 13.2. The value for B27 was 5.2; that for B28 was 6.6; that for B29 was 2.9. Turning to B30, the “Ratio IC50 to 056-53.H4E IC50” value came out at 2.4. The value for B31 was 2; that for B32 was 4.1. The value for B33 was 3.3; that for B34 was 6.5. As for B35, the “Ratio IC50 to 056-53.H4E IC50” value is 3.6.

For the molecule B36, the “Ratio IC50 to 056-53.H4E IC50” value worked out at 4.8. The value for B37 was 3.5. The value for B38 was 4.3. The value for B39 was 3.6.

The values are drawn from patent publication US20110086806A1 (published 2011).
